What was measured:
prostate cancer = details: phase III clinical trial in prostate cancer; cited from earlier work
[1] = system: Gr1+ cells isolated from the bone marrow of healthy mice; assay: Transwell migration assay with recombinant proteins, Gr1+ cells; assay type: cell-based, mouse; details: increasing concentration of recombinant protein in bottom well
Description: (§1) Gr1+ cells and monocytes were isolated from the bone marrow (tibias and femurs) of C57BL/6 wild type, 3 months old mice using the MACS Myltenyi Biotec Cell Isolation system according to the manufacturer's instruction. For monocytes isolation the Monocyte Isolation Kit (BM) (Miltenyi 130-100-629) was used, whereas Gr1 positive cells were isolated using the antibody Anti-Gr-1-Biotin, clone RB6-8C5 (Miltenyi 130-101-894). Red blood cells were lysed with the ACK lysis buffer (ThermoFisher Scientific A1049201). Total bone marrow cells and Gr1+ cells were cultured for 4 days. Briefly, 40 ng/ml GM-CSF (PeproTech #315-03) and 40 ng/ml IL-6 (PeproTech #216-16) were added to the control medium RPMI 1640 (ThermoFisher Scientific 11875-093), supplemented with penicillin-streptomycin, 10% FBS, 10 mM HEPES, 20 μM 2-Mercaptoethanol. Either recombinant mouse CXCL5 (BioLegend #573302) or recombinant mouse CXCL17 (BioLegend #585402) was added at the beginning of the experiment (200 nM). For the migration assay 2.5×10^5 MACS sorted cells were resuspended in 100 μL of either RPMI 1640 control medium or organoid complete medium and placed on the upper well of the transwell system (5 μm, Corning #160241). […] The migration of cells was quantified by flow cytometry, 15 seconds acquisition time, using BD LSR II flow cytometer.

[2] = system: whole bone marrow (BM) mouse cells and Gr1+ cells; assay: 4 day culture of bone marrow and Gr1+ cells in GM-CSF, IL-6 medium plus recombinant chemokine; assay type: cell-based; details: 4 days culture with IL6 and GM-CSF, recombinant chemokine 200 nM
Description: Gr1+ cells and monocytes were isolated from the bone marrow (tibias and femurs) of C57BL/6 wild type, 3 months old mice using the MACS Myltenyi Biotec Cell Isolation system according to the manufacturer's instruction. For monocytes isolation the Monocyte Isolation Kit (BM) (Miltenyi 130-100-629) was used, whereas Gr1 positive cells were isolated using the antibody Anti-Gr-1-Biotin, clone RB6-8C5 (Miltenyi 130-101-894). Red blood cells were lysed with the ACK lysis buffer (ThermoFisher Scientific A1049201). Total bone marrow cells and Gr1+ cells were cultured for 4 days. Briefly, 40 ng/ml GM-CSF (PeproTech #315-03) and 40 ng/ml IL-6 (PeproTech #216-16) were added to the control medium RPMI 1640 (ThermoFisher Scientific 11875-093), supplemented with penicillin-streptomycin, 10% FBS, 10 mM HEPES, 20 μM 2-Mercaptoethanol. Either recombinant mouse CXCL5 (BioLegend #573302) or recombinant mouse CXCL17 (BioLegend #585402) was added at the beginning of the experiment (200 nM). For the migration assay 2.5×10^5 MACS sorted cells were resuspended in 100 μL of either RPMI 1640 control medium or organoid complete medium and placed on the upper well of the transwell system (5 μm, Corning #160241). The migration assay with recombinant proteins was performed by adding to the bottom well 600 μL of RMPI1640 control medium supplemented with the indicated amount of either CXCL5 or CXCL17. The migration assay with organoid conditioned medium was performed by adding to the bottom well 600 μL of medium collected over 5 days of culture of prostate organoids with the indicated genotype. The migration of cells was quantified by flow cytometry, 15 seconds acquisition time, using BD LSR II flow cytometer.
For Flow Cytometry, spleen and lymph node single cell suspensions were prepared by mashing the tissue in 2% FBS/PBS. Tumor and control prostate tissue (from anterior lobes) single cell suspension was prepared by mincing the tumor and digestion with Collagenase Type I (Life Technologies #17018029) in 10% DMEM (GIBCO) for 1 hr at 37° C. Cell suspensions were passed through […] cell strainers to obtain single cell suspensions. Blood samples and single cell suspensions were re-suspended in 1-2 ml of ACK red cell lysis buffer (GIBCO) and lysed on ice for 1 minute. Cell suspensions were then washed in 2% FBS/PBS, centrifuged and re-suspended in 0.5-1 ml of 2% FBS/PBS. […] All staining mixtures were analyzed on a BD LSR II flow cytometer (Becton Dickinson). Resulting profiles were further processed and analyzed using the FlowJo 8.7 software.
Microarray analysis and gene set enrichment analysis on mouse tumor tissue were conducted and analyzed as previously described by Palucka, A. K. et al. (Palucka, A. K. et al. Cell 164, 1233-1247 (2016)). […]

[3] = system: monocytes isolated from the bone marrow of healthy mice; assay: Transwell migration assay with recombinant proteins, monocytes; assay type: cell-based, mouse; details: increasing concentration of recombinant protein in bottom well
Description: as §1

In the case of COc1cccc2c1c(O)c(C(=O)N(C)c1ccc(C(F)(F)F)cc1)c(=O)n2C [Tasquinimod], the survival benefit (prostate cancer) is given as “failed to show a clear survival benefit”.

B1: CXCL5: recombinant mouse CXCL5 (BioLegend #573302), chemokine (protein, UniProt P50228 41-132, looked up)
C-X-C motif chemokine 5: APSSVIAATELRCVCLTVTPKINPKLIANLEVIPAGPQCPTVEVIAKLKNQKEVCLDPEAPVIKKIIQKILGSDKKKAKRNALAVERTASVQ
For B1, the “migration of Gr1+ cells” value [1] was “strongly induced the migration”, the “expression of the Ly6C and Ly6G markers and expression profile of the genes tested” value (shortened to “expression”) [2] was “did not observe any significant difference” and the “expression” value ([2]; listed as recombinant CXCL5) was “did not show significant changes”.

B2: CXCL17: recombinant mouse CXCL17 (BioLegend #585402), chemokine (protein, UniProt Q5UW37 23-119, looked up)
C-X-C motif chemokine 17: SPNPGVARSHGDQHLAPRRWLLEGGQECECKDWFLQAPKRKATAVLGPPRKQCPCDHVKGREKKNRHQKHHRKSQRPSRACQQFLKRCHLASFALPL
With B2 the “migration of monocytes (Ly6G−/Ly6C^hi cells)” value [3] was “chemoattractants”, the “expression” value [2] was “did not observe any significant difference” and the “expression” value ([2]; listed as recombinant CXCL17) was “did not show significant changes”.

Source: patent US20210301349A1, “COMPOSITIONS AND METHODS FOR TREATING A TUMOR SUPPRESSOR DEFICIENT CANCER” (BETH ISRAEL DEACONESS MEDICAL CENTER, INC., priority 2016, published 2021)
